Experimental data from patent US20240270821A1, “GIP/GLP1/GCG TRI-RECEPTOR AGONISTS AND USES THEREOF” (priority 2023, published 2024).
Starred links: 1 amine or outer side, 2 acyl side, 3 side chain; linkers in the order of their positions; H or OH if unused. Non-standard residues stand in square brackets, D forms with d. Groups on a side chain read outwards from the residue. No end group written: not given here. *: point of attachment. C20 diacid = O=C(O)CCCCCCCCCCCCCCCCCCC(=O)*; C18 diacid = O=C(O)CCCCCCCCCCCCCCCCC(=O)*; αMePhe(2-F) = C[C@](N)(Cc1ccccc1F)C(=O)O; γGlu = O=C(O)[C@H](CCC(=O)[*:2])N[*:1]; NMeY = CN[C@@H](Cc1ccc(O)cc1)C(=O)O; αMeF = C[C@](N)(Cc1ccccc1)C(=O)O; 4Pal = N[C@@H](Cc1ccncc1)C(=O)O; αMeL = CC(C)C[C@](C)(N)C(=O)O; Orn = NCCC[C@H](N)C(=O)O; AEEA = NCCOCCOCC(=O)O; Aib = CC(C)(N)C(=O)O

T1: hGIPR (Homo sapiens, UniProt P48546)
T1 sequence (P48546 22-466): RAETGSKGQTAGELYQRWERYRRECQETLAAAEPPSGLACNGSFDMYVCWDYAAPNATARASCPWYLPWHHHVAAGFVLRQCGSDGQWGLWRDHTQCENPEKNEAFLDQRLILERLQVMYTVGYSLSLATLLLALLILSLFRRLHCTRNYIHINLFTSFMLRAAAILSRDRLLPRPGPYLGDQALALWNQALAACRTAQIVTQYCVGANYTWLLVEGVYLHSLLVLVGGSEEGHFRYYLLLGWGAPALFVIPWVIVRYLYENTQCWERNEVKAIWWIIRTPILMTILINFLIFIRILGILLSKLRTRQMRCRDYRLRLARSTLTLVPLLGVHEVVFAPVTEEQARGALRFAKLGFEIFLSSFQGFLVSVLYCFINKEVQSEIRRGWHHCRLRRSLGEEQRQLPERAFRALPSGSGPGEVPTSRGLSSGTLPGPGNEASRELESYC

T2: human GIP receptor (human) (UniProt P48546)
T2 sequence (looked up): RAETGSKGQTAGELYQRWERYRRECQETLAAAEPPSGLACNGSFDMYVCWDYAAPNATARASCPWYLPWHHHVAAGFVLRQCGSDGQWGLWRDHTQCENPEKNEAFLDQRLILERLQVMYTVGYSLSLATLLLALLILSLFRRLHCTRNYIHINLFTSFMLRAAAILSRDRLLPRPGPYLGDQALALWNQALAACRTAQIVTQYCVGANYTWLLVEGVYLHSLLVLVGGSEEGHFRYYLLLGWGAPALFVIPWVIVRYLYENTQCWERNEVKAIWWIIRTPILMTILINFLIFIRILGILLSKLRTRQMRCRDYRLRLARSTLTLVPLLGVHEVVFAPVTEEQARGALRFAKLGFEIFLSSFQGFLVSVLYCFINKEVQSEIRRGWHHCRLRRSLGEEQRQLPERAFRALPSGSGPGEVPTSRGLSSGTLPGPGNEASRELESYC


Assays:
[1] = biological target: Pro-Link-tagged Human GLP-1R (human) (UniProt P43220); assay: cell-based or functional assay
Sequence of Pro-Link-tagged Human GLP-1R (human) (P43220 24-463): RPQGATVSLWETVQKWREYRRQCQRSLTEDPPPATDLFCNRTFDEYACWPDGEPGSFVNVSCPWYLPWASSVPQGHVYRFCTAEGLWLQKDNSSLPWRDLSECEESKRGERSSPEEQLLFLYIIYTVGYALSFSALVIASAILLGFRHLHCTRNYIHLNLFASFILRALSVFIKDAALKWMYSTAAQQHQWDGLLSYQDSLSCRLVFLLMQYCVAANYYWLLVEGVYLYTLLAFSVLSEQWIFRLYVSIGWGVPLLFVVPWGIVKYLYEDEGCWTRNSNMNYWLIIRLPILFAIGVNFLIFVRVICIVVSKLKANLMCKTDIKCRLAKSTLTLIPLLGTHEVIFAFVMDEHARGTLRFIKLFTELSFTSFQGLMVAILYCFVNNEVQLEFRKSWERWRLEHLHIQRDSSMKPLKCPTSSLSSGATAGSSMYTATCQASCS

hGIPR [2] = biological target: T1, hGIPR; assay: Functional cAMP activity in the presence of 1% HSA; type: cell-based; settings: read-out: cAMP Rel EC50, hGIPR
hGLP-1R [3] = biological target: T3, hGLP-1R (Homo sapiens, UniProt P43220); assay: Functional cAMP activity in the presence of 1% HSA; type: cell-based; settings: read-out: cAMP Rel EC50, hGLP-1R
T3 sequence (P43220 24-463): as above

human GcgR = human GcgR (Homo sapiens, UniProt P47871); assay: Functional cAMP activity in the presence of 1% HSA; type: cell-based; settings: read-out: cAMP Rel EC50, hGcgR
Sequence of human GcgR (P47871 26-477): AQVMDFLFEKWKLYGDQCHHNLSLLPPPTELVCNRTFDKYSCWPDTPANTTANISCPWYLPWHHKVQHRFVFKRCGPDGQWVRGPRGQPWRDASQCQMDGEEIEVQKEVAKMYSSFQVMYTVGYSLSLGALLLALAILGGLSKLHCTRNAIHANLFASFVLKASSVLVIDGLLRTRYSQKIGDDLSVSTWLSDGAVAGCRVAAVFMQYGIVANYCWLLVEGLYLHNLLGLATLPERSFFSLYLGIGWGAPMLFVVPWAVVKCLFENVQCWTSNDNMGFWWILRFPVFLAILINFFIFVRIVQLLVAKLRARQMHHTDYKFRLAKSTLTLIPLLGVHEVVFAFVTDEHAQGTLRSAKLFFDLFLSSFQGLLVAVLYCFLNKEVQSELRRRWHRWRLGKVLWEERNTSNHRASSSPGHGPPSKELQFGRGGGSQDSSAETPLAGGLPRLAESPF

hGIPR [4] = biological target: T1, hGIPR; assay: Functional cAMP activation in the presence of 0.1% casein (no HSA); type: cell-based; settings: in the presence of 0.1% casein (no HSA); geometric mean; read-out: Relative cAMP EC50, hGIPR;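 on Relative cAMP EC50, hGIPR: intracellular cAMP rise after 30 min at 37 °C read by HTRF against a standard curve, scaled between buffer alone (0%) and top control ligand concentration (100%), four-parameter fit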;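 on Relative cAMP EC50, hGLP-1R: intracellular cAMP rise after 30 min at 37 °C read by HTRF, normalized between buffer only (0%) and maximal control ligand (100%), four-parameter variable-slope fit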;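 on Relative cAMP EC50, hGcgR: intracellular cAMP rise after 30 min at 37 °C, read by HTRF against a cAMP standard curve, scaled from buffer only (0%) to maximal control ligand response (100%)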
hGLP-1R [5] = biological target: T3, hGLP-1R; assay: as above; type: cell-based; settings: in the presence of 0.1% casein (no HSA); geometric mean; read-out: Relative cAMP EC50, hGLP-1R
hGcgR = hGcgR (Homo sapiens, UniProt P47871); assay: as above; type: cell-based; settings: in the presence of 0.1% casein (no HSA); geometric mean; read-out: Relative cAMP EC50, hGcgR;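 further: intracellular cAMP rise after 30 min at 37 °C, read by HTRF against a cAMP standard curve, scaled from buffer only (0%) to maximal control ligand response (100%)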
Sequence of hGcgR (P47871 26-477): as above

human GLP1-R = human GLP1-R (Homo sapiens, UniProt P43220); assay: GLP1-R internalization assay in HEK293 cells; type: cell-based; settings: for EC50: HEK293 cells expressing SNAP-GLP-1R, read-out: GLP1R Internalization EC50; for Internalization % TOP: normalized to maximum concentration of GLP-1 (100%)
Sequence of human GLP1-R (P43220 24-463): as the sequence (P43220 24-463) above

[6] = tested on: Intestinal organoid from Göttingen minipig jejunum tissue, 2D monolayer; assay: Cell based in vitro permeability (Papp) assay; type: in vitro ADME
Method in brief: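 2D monolayers derived from Göttingen minipig jejunal organoids on transwell inserts. Basal samples collected at 20 min in the presence of C10. Peptide in apical and basal compartments quantified by LC/MS to give Papp.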

hGLP-1R [7] = biological target: T3, hGLP-1R; assay: cell-based or functional assay
[8] = biological target: T2, human GIP receptor (human); assay: cell-based or functional assay
[9] = biological target: human glucagon receptor (human) (UniProt P47871); assay: cell-based or functional assay
Sequence of human glucagon receptor (human) (P47871 26-477): as the sequence (P47871 26-477) above

| % Stimulation Max [1] | hGLP1R β-arrestin Rel EC50 [1] | Relative cAMP EC50 (hGLP-1R [7]) | cAMP Rel EC50 (1% HSA) (hGLP-1R [7]) | Relative cAMP EC50 [8] | cAMP Rel EC50 (1% HSA) [8] | Relative cAMP EC50 [9] | cAMP Rel EC50 (1% HSA) [9] | Molecule | EC50 (hGIPR [2]) | EC50 (hGLP-1R [3]) | EC50 (human GcgR) | EC50 (hGIPR [4]) | EC50 (hGLP-1R [5]) | EC50 (hGcgR) | EC50 (human GLP1-R) | Internalization % TOP (human GLP1-R) | Relative Papp (Compared to internal standard) [6] |
| --- | --- | --- | --- | --- | --- | --- | --- | --- | --- | --- | --- | --- | --- | --- | --- | --- | --- |
| – | – | – | – | – | – | – | – | H-Y[Aib]QGTFTSDFS[Orn][αMeL]LDKK([AEEA-AEEA-γGlu-C18 diacid])AQ[Aib]AFIEWLLEGGHSSGAPPPSGE-NH2 [Example 169] | 21.5 nM | 216 nM | 439 nM | 0.209 nM | 6.17 nM | 11.7 nM | 178 nM | 49.4% | 0.12 |
| – | – | – | – | – | – | – | – | H-Y[Aib]QGTFTSDFS[Orn][αMeL]LDKK([AEEA-γGlu-C18 diacid])AQ[Aib]AFIEYLLE[Aib]G[4Pal]SSGAPPPSGS-NH2 [Example 242] | 5.94 nM | 242 nM | 484 nM | 0.0916 nM | 3.42 nM | 3.5 nM | 56 nM | 38.2% | 0.07 |
| – | – | – | – | – | – | – | – | H-Y[Aib]QGTFTSDFS[Orn][αMeL]LDKK([γGlu-AEEA-γGlu-C18 diacid])AQ[Aib]AFIEYLLE[Aib]GPSSGAPPPSGS-NH2 [Example 193] | 12.7 nM | 473 nM | 1120 nM | 0.0609 nM | 5.19 nM | 4.51 nM | 132 nM | 50.7% | 0.17 |
| 58.3% | 23.3 nM | 1.48 nM | 415 nM | 1 nM | 92.4 nM | 6.73 nM | 1500 nM | Y[Aib]QGTFTSDYSI[αMeL]LDKQAAKAFVEWLLAGGPSSGEPPPSEG-NH2 (not fully specified (residue 20)) [Example 305] | – | – | – | – | – | – | – | – | – |
| 41.4% | 16.9 nM | 3.15 nM | 477 nM | – | 237 nM | 14.2 nM | 4950 nM | Y[Aib]QGTFTSDYSI[αMeL]LDKIAAK([AEEA-AEEA-γGlu-C20 diacid])[Orn]FVQYLIAGGPSSGEPPPSEG-NH2 [Example 308] | – | – | – | – | – | – | – | – | – |
| 40.3% | 15.7 nM | 1.05 nM | 98 nM | 0.0975 nM | 12.9 nM | 6.54 nM | 976 nM | [NMeY][Aib]QGT[αMeF]TSDYSILLDKIAAKAFVQWLIAGGPSSGEPPPSEG-NH2 (not fully specified (residue 20)) [Example 300] | – | – | – | – | – | – | – | – | – |
| 47.8% | 9.21 nM | 0.551 nM | 172 nM | 0.127 nM | 48 nM | 2.31 nM | 1720 nM | Y[Aib]QGT[αMePhe(2-F)]TSDYSKLLDKIAQKAFIEYLIEGGPSSGEPPPSEG-NH2 (not fully specified (residue 20)) [Example 304] | – | – | – | – | – | – | – | – | – |

| Molecule | % Stimulation Max [1] | hGLP1R β-arrestin Rel EC50 [1] | Relative cAMP EC50 (hGLP-1R [7]) | cAMP Rel EC50 (1% HSA) (hGLP-1R [7]) | Relative cAMP EC50 [8] | cAMP Rel EC50 (1% HSA) [8] | Relative cAMP EC50 [9] | cAMP Rel EC50 (1% HSA) [9] | EC50 (hGIPR [2]) | EC50 (hGLP-1R [3]) | EC50 (human GcgR) | EC50 (hGIPR [4]) | EC50 (hGLP-1R [5]) | EC50 (hGcgR) | EC50 (human GLP1-R) | Internalization % TOP (human GLP1-R) | Relative Papp (Compared to internal standard) [6] |
| --- | --- | --- | --- | --- | --- | --- | --- | --- | --- | --- | --- | --- | --- | --- | --- | --- | --- |
| Tirzepatide (peptide) | 10.5% | – | – | – | – | – | – | – | – | – | – | – | – | – | – | – | – |
